Data on four molecules can be found in patent publication US20220218785A1 (ALPINE IMMUNE SCIENCES, published 2022).

The target of test [1] is T1, ICOSL labeled with AlexaFluor-647 (UniProt O75144 19-256, limits assumed, labeled with AlexaFluor-647).
T1 sequence (looked up): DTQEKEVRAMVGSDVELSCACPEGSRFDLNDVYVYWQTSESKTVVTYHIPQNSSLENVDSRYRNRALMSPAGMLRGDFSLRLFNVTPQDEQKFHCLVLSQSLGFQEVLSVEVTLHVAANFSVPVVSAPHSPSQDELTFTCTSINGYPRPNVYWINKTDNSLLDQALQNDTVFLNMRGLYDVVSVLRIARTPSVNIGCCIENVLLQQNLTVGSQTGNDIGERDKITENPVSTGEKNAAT
In words: competition, flow cytometry: labelled ICOSL on CHO cells expressing ICOS. On the technique in general: In flow cytometry, cells or beads pass a laser one at a time.

Test [2] addresses T2, human CD28 (human, UniProt P10747 19-220).
T2 construct: whole, on cells
Kind of test: flow cytometry, cells with human CD28; protein from CHO.

For test [3], the target named is T3, human ICOS (human, UniProt Q9Y6W8 21-199).
T3 construct: whole, on cells
T3 sequence (looked up): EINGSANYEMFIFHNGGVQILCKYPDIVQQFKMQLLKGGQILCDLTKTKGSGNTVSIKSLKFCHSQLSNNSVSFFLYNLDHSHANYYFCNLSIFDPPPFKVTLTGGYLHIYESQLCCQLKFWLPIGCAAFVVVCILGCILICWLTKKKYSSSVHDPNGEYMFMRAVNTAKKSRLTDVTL
Kind of test: flow cytometry, cells with human ICOS; protein from CHO.

The target in test [4] is T2, human CD28. Kind of test: flow cytometry, cells with human CD28; protein from 293.
Test [5] addresses T2, human CD28. Kind of test: flow cytometry, cells with human CD28; protein from CHO. This is another data set of the same source.
For test [6], the target named is T3, human ICOS. Kind of test: flow cytometry, cells with human ICOS; protein from 293.
Test [7] has as its target T3, human ICOS. Kind of test: flow cytometry, cells with human ICOS; protein from CHO. This is another data set of the same source.
The target in test [8] is T4, human CTLA-4 (human, UniProt P16410 36-223).
T4 construct: whole, on cells
In words: flow cytometry, cells with human CTLA-4; protein from CHO.

Test [9] has as its target T4, human CTLA-4. Kind of test: flow cytometry, cells with human CTLA-4; protein from 293.
Test [10] concerns the target T4, human CTLA-4. Kind of test: flow cytometry, cells with human CTLA-4; protein from CHO. The source holds these as a separate data set.
Test [11] has as its target T2, human CD28. In words: flow cytometry, transfected HEK293 cells. The protocol:
(§1) Binding was assessed substantially as described in Example 1 on transfected HEK293 cells generated to express the full-length surface ligands CD28, ICOS or CTLA-4 from human, cynomolgus monkey, rat or mouse. Transfection was carried out using a transient transfection system (Life Technologies, USA). As a control, binding to mock (non-transfected) cells also was assessed.

In test [12] the target is T4, human CTLA-4. Kind of test: flow cytometry, transfected HEK293 cells. The protocol: as §1
The target of test [13] is T3, human ICOS. In words: flow cytometry, transfected HEK293 cells. On the procedure: as §1
The target in a further test is T5, cynomolgus monkey CD28 (cynomolgus monkey, UniProt Q0PDN3 19-220).
T5 construct: whole, on cells
Kind of test: flow cytometry, transfected HEK293 cells. The protocol: as §1

The target in a further test is T6, cynomolgus monkey ICOS (cynomolgus monkey, UniProt A0A2K5TQR6 21-168).
T6 sequence: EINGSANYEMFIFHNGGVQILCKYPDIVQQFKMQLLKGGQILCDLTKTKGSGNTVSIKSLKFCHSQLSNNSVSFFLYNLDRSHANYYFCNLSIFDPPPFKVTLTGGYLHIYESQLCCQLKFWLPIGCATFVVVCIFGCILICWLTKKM
In words: flow cytometry, transfected HEK293 cells. The protocol:
as §1

For the next test, the target named is T7, cynomolgus monkey CTLA-4 (cynomolgus monkey, UniProt G7PL88 36-223).
T7 construct: whole, on cells
Kind of test: flow cytometry, transfected HEK293 cells. On the procedure:
as §1

A further test deals with T8, rat CD28 (rat, UniProt P31042 20-218).
T8 construct: whole, on cells
In words: flow cytometry, transfected HEK293 cells. The protocol: as §1

The next test deals with T9, rat ICOS (rat, UniProt Q9R1T7 21-200).
T9 construct: whole, on cells
T9 sequence (looked up): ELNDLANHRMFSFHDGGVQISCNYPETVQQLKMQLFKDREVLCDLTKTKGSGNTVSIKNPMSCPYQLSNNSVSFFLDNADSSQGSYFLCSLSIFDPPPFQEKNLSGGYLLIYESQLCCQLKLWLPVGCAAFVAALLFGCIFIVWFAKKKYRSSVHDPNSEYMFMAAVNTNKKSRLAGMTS
In words: flow cytometry, transfected HEK293 cells. The protocol:
as §1

The target of a further test is rat CTLA-4 (rat, UniProt Q62859 36-223). Kind of test: flow cytometry, transfected HEK293 cells. The protocol: as §1
Another test addresses T10, mouse CD28 (mouse, UniProt P31041 20-218).
T10 construct: whole, on cells
In words: flow cytometry, transfected HEK293 cells. The protocol: as §1

The target in another test is T11, mouse ICOS (mouse, UniProt Q9WVS0 21-200).
T11 construct: whole, on cells
T11 sequence (looked up): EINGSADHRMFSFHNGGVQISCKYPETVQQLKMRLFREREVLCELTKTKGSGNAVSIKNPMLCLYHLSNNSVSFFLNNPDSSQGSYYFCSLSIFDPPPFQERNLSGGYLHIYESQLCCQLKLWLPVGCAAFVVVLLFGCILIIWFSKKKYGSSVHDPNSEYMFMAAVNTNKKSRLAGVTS
In words: flow cytometry, transfected HEK293 cells. On the procedure: as §1

The target in the next test is T12, mouse CTLA-4 (mouse, UniProt P09793 36-223).
T12 construct: whole, on cells
In words: flow cytometry, transfected HEK293 cells. On the procedure:
as §1

The target of test [14] is T13, CD28 on CHO cells expressing CD28 (UniProt P10747 19-220, limits assumed).
T13 construct: whole, on cells
Kind of test: competition, flow cytometry: competitor CD80 on CHO cells expressing CD28.

The target in test [15] is T13, CD28 on CHO cells expressing CD28. In words: competition, flow cytometry: competitor labelled CD86 on CHO cells expressing CD28.
Test [16] addresses T14, ICOS on CHO cells expressing ICOS (UniProt Q9Y6W8 21-199, limits assumed).
T14 construct: whole, on cells
T14 sequence (looked up): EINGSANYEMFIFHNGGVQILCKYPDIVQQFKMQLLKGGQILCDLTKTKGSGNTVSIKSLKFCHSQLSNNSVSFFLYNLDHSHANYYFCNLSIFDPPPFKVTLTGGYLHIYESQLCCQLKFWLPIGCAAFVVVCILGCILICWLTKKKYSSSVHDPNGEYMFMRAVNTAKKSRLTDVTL
Kind of test: competition, flow cytometry: competitor labelled ICOSL on CHO cells expressing ICOS.

Test [17] deals with T13, CD28 on CHO cells expressing CD28. Kind of test: flow cytometry on CHO cells expressing CD28, bound protein detected with anti-human IgG-PE, median fluorescence against [pM].
Test [18] concerns the target T14, ICOS on CHO cells expressing ICOS. In words: flow cytometry on CHO cells expressing ICOS, bound protein detected with anti-human IgG-PE, median fluorescence against [pM].

Broadly, the IC50 is the point on the concentration scale where inhibition reaches its midpoint. By EC50 is commonly meant the concentration at which the effect is half-maximal. Usually EC50 (read off the curve) stands for the concentration needed to bring the measured effect to its halfway point.

B1: prezalumab (AMG-557; anti-ICOSL, Creative Biolabs) (antibody, V domains shown)
VH: EVQLVESGGGLVQPGGSLRLSCAASGFTFSSYWMSWVRQAPGKGLEWVAYIKQDGNEKYYVDSVKGRFTISRDNAKNSLYLQMNSLRAEDTAVYYCAREGILWFGDLPTFWGQGTLVTVSS
VL: DIQMTQSPSSLSASVGDRVTITCRASQGISNWLAWYQQKPEKAPKSLIYAASSLQSGVPSRFSGSGSGTDFTLTISSLQPEDFATYYCQQYDSYPRTFGQGTKVEIK
Turning to B1, the IC50 in [1] came to 23.3 nM.

B2: ICOSL ECD with N52H/N57Y/Q100R/F172S, Fc fusion with (G4S)2 linker (Fc fusion)
chain: DTQEKEVRAMVGSDVELSCACPEGSRFDLNDVYVYWQTSESKTVVTYHIPQHSSLEYVDSRYRNRALMSPAGMLRGDFSLRLFNVTPQDEQKFHCLVLSRSLGFQEVLSVEVTLHVAANFSVPVVSAPHSPSQDELTFTCTSINGYPRPNVYWINKTDNSLLDQALQNDTVSLNMRGLYDVVSVLRIARTPSVNIGCCIENVLLQQNLTVGSQTGNDIGERDKITENPVSTGEKNAATGGGGSGGGGSEPKSSDKTHTCPPCPAPEAEGAPSVFLFPPKPKDTLMISRTPEVTCVVVDVSHEDPEVKFNWYVDGVEVHNAKTKPREEQYNSTYRVVSVLTVLHQDWLNGKEYKCKVSNKALPAPIEKTISKAKGQPREPQVYTLPPSREEMTKNQVSLTCLVKGFYPSDIAVEWESNGQPENNYKTTPPVLDSDGSFFLYSKLTVDKSRWQQGNVFSCSVMHEALHNHYTQKSLSLSPG
notes: also called ICOSCL ECD with N52H/N57Y/Q100R/F1725
For the molecule B2, the “MFI (ΔWT)” value was 63.9 fold vs WT with human CD28 [2]; 1.4 fold vs WT in the test with human ICOS [3]; 3.6 fold vs WT with human CD28 [4]; 4.1 fold vs WT with human CD28 [5]; 1.4 fold vs WT with human ICOS [6]; 1.1 fold vs WT with human ICOS [7]. The “MFI (ΔWT)” value came out at 42.6 fold vs WT with human CTLA-4 [8], 0.7 fold vs WT with human CTLA-4 [9] and 0.7 fold vs WT with human CTLA-4 [10].

B3: ICOSL IgV with N52H/N57Y/Q100R, Fc fusion with (G4S)2 linker (Fc fusion)
chain: DTQEKEVRAMVGSDVELSCACPEGSRFDLNDVYVYWQTSESKTVVTYHIPQHSSLEYVDSRYRNRALMSPAGMLRGDFSLRLFNVTPQDEQKFHCLVLSRSLGFQEVLSVEVTLHVAANFSVGGGGSGGGGSEPKSSDKTHTCPPCPAPEAEGAPSVFLFPPKPKDTLMISRTPEVTCVVVDVSHEDPEVKFNWYVDGVEVHNAKTKPREEQYNSTYRVVSVLTVLHQDWLNGKEYKCKVSNKALPAPIEKTISKAKGQPREPQVYTLPPSREEMTKNQVSLTCLVKGFYPSDIAVEWESNGQPENNYKTTPPVLDSDGSFFLYSKLTVDKSRWQQGNVFSCSVMHEALHNHYTQKSLSLSPG
notes: also called ICOSCL IgV with N52H/N57Y/Q100R
For the molecule B3, the “MFI (ΔWT)” value came to 49 fold vs WT with human CD28 [2]; 1.2 fold vs WT with human ICOS [3]; 4.7 fold vs WT with human CD28 [4]; 4.9 fold vs WT with human CD28 [5]; 0.8 fold vs WT with human ICOS [6]; 0.7 fold vs WT with human ICOS [7]. The “MFI (ΔWT)” value with human CTLA-4 [8] was 27 fold vs WT; with human CTLA-4 [9] it was 0.8 fold vs WT; in the test with human CTLA-4 [10] it was 0.7 fold vs WT.

B4: variant ICOSL IgV-Fc (variant ICOSL IgV N52H/N57Y/Q100R, SEQ ID NO: 36, fused to an inert human IgG1 Fc, e.g. SEQ ID NO: 42) (Fc fusion)
chain: DTQEKEVRAMVGSDVELSCACPEGSRFDLNDVYVYWQTSESKTVVTYHIPQHSSLEYVDSRYRNRALMSPAGMLRGDFSLRLFNVTPQDEQKFHCLVLSRSLGFQEVLSVEVTLHVAANFSVEPKSSDKTHTCPPCPAPEAEGAPSVFLFPPKPKDTLMISRTPEVTCVVVDVSHEDPEVKFNWYVDGVEVHNAKTKPREEQYNSTYRVVSVLTVLHQDWLNGKEYKCKVSNKALPAPIEKTISKAKGQPREPQVYTLPPSRDELTKNQVSLTCLVKGFYPSDIAVEWESNGQPENNYKTTPPVLDSDGSFFLYSKLTVDKSRWQQGNVFSCSVMHEALHNHYTQKSLSLSPG
notes: also called variant ICOSL vIgD-Fc fusion molecule
Take B4: the concentration giving a half-maximal response (EC50) with human CD28 [11] was 0.648 nM; with human CTLA-4 [12], 0.68 nM; with human ICOS [13], 0.633 nM; in the test with cynomolgus monkey CD28, 0.44 nM; in the test with cynomolgus monkey ICOS, 0.579 nM; in the test with cynomolgus monkey CTLA-4 it was 0.704 nM. In addition, the EC50 in the test with rat CD28 is 1.06 nM; with rat ICOS, 1.03 nM; with rat CTLA-4, 0.793 nM; with mouse CD28, 1.15 nM; with mouse ICOS it was 1.43 nM; with mouse CTLA-4, 1.11 nM. Besides, the IC50 in [14] worked out at 1 nM; in test [15] it was 0.7 nM; in test [16], 4.3 nM. For the same molecule, the concentration for a half-maximal effect (EC50 (read off the curve)) in test [17] and in test [18] was roughly 3000 pM each time.
